Target: T1, Wild-type (WT) moesin, P26038
T1 chain: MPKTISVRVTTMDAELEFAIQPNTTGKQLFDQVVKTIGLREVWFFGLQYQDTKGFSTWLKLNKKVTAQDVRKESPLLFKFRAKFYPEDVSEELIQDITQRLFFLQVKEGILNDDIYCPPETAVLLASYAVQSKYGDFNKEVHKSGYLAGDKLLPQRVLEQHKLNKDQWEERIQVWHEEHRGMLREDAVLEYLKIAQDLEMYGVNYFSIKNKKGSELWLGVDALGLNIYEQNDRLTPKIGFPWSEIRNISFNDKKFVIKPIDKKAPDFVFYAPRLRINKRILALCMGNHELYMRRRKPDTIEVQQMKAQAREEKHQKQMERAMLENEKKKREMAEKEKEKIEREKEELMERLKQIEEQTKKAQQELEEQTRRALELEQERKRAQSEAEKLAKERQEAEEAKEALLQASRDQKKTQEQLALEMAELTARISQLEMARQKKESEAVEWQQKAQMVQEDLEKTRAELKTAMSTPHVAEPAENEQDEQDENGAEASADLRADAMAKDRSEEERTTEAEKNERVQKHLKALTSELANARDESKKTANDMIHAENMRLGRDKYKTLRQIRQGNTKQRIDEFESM
Assay: AUC
Settings: remark: other sources report otherwise

percent of the protein as dimers: 29 to 31%
B1: Wild-type (WT) moesin, P26038 1-577 (natural protein)
chain: T1 chain

Reference: PMC5912500
